Columns and labels:
[1] = molecular target: IL-2 receptor beta/gamma (Homo sapiens) (UniProt P14784); details: cited from earlier work
[2] = molecular target: human interleukin-2 (recombinant IL-2, Humanzyme) (human, UniProt P60568); assay: SPR
[3] = molecular target: human IL-2 crystallised with the F5111 Fab (human, UniProt P60568); assay: crystal structure
Chain of human IL-2 crystallised with the F5111 Fab (P60568 21-153): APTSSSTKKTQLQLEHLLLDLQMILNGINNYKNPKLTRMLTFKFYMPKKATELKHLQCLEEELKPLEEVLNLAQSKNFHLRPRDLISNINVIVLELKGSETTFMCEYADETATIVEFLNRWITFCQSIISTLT

Chain of IL-2 receptor beta/gamma (Homo sapiens) (P14784 27-240, chain 1 of 2): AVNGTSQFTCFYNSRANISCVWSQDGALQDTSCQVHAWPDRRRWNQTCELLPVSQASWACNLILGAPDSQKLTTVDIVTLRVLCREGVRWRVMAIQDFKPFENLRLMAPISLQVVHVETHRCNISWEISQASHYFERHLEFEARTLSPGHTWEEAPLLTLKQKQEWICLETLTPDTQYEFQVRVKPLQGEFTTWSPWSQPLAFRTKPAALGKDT
Chain of IL-2 receptor beta/gamma (Homo sapiens) (P31785 23-262, chain 2 of 2, further chain): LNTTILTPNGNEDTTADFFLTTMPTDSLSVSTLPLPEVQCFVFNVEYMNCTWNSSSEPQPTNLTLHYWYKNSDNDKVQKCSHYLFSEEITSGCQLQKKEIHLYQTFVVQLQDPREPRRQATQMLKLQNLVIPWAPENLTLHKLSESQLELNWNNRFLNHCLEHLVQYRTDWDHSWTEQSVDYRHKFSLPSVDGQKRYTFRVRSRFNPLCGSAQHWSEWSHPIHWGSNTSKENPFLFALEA
Chain of human interleukin-2 (recombinant IL-2, Humanzyme) (P60568 21-153): as the sequence (P60568 21-153) above

In the case of IL-2 (from UniProt P60568), the Kd [1] is listed as 1 nM.

B1: F5111, fully human anti-human IL-2 IgG (antibody, V domains shown)
VH: QLQLQESGPGLVKPSQTLSLTCTVSGGSISSGGYYWSWIRQHPGKGLEWIGYIYYSGSTYYNPSLKSRVTISVDTSKNQFSLKLSSVTAADTAVYYCARTPTVTGDWFDPWGRGTLVTVSS
VL: NFMLTQPHSVSESPGKTVTISCTRSSGSIASNYVQWYQQRPGSSPTTVIYEDNQRPSGVPDRFSGSIDSSSNSASLTISGLKTEDEADYYCQSYDSSNVVFGGGTKLTVL
B1: binds [2].

B2: F5111 Fab (Fab, V domains shown)
VH: B1 VH
VL: B1 VL
B2: binds [3].

Source: publication PMC6398608 (Nature medicine, 2018)
